PMC5570900, “Exploiting a novel conformational switch to control innate immunity mediated by complement protein C3a” (Nature Communications, 2017)

Tests used:
C5aR = biological target: T1, C5aR (Homo sapiens, UniProt P21730); assay: [125I]-hC5a competition binding on HMDMs; settings: [125I]-hC5a 25 pM
T1 construct: endogenous in cells; host or cells: primary human monocyte-derived macrophages (HMDMs)
T1 sequence (P21730 1-350): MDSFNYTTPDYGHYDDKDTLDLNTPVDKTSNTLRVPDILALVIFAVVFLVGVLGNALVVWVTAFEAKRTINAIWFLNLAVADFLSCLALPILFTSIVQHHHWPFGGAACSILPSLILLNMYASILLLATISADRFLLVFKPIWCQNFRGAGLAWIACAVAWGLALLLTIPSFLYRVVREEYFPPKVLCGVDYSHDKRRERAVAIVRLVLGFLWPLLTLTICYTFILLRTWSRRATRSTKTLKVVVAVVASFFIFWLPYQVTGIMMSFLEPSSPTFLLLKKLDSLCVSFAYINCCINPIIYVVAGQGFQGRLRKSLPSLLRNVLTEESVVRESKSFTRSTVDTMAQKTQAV
Procedure: Receptor binding was performed by ligand competition with labelled 80 pM [^125I]-C3a or 25 pM [^125I]-C5a (2200 Ci/mmol; Perkin Elmer, Torrance, CA, USA) on HMDMs (1.2 × 10^6 cells/ml). HMDMs were treated with [^125I]-C3a or [^125I]-C5a ± various concentrations of unlabelled C3a/C5a or experimental ligands were diluted with assay buffer (50 mM Tris, 3 mM MgCl2, 0.1 mM CaCl2, 0.5% (w/v) BSA, pH 7.4) for 60 min at room temperature. Unbound [^125I]-C3a or [^125I]-C5a was removed by filtration through glass microfibre filter GF/B (Whatman Iner. Ltd, England) and washed three times with cold buffer (50 mM Tris-HCl pH 7.4). Bound [^125I]-C3a or [^125I]-C5a were assessed by scintillation counting on Microbeta counter. Specific binding was defined as the difference between total binding and nonspecific binding as determined in the presence of 1 μM unlabelled C3a or C5a[4].

[1] = system: wild-type human HEK293 cells (C3aR−/−); assay: Intracellular Ca2+ release in wild-type HEK293 cells; type: cell-based
C3aR [2] = biological target: T2, C3aR (Homo sapiens, UniProt Q16581); assay: Intracellular Ca2+ release in HEK293 cells transfected with C3aR; type: cell-based; design: Concentration-dependent Ca^2+ release in human monocyte-derived macrophages (HMDMs); endogenous in cells; host or cells: primary human monocyte-derived macrophages (HMDMs); settings: HEK293 cells transfected with C3aR (C3aR+/+), compound alone
T2 sequence (Q16581 1-482): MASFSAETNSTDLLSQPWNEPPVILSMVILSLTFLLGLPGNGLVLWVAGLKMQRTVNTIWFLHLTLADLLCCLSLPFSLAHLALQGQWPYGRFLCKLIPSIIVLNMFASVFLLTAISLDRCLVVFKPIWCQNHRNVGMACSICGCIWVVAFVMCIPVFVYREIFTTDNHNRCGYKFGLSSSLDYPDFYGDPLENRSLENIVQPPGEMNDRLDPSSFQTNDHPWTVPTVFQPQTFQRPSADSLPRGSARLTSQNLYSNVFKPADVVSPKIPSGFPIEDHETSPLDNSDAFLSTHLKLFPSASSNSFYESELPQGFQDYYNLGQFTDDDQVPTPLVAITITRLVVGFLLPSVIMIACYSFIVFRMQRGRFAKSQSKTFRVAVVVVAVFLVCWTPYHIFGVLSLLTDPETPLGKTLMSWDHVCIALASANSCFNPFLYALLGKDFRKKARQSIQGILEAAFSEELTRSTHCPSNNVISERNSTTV

Rat plasma stability = type: in vitro ADME; settings: 37 °C
Procedure: (§1) For plasma stability studies, C3a and experimental compounds (10 μL, 1 mM in DMSO) were added to neat rat plasma (190 μL) and heated to 37 °C in a circulating water bath. Aliquots (20 µL) were collected at time points (0, 2, 5 and 10 min for C3a; 0, 5, 15, 30, 60, 120 and 240 min for other test compounds) and added directly to MeCN/H2O (80 µL, 9:1). The samples were centrifuged at 13,000 g for 3 min before supernatants were isolated and analyzed for test compound degradation via LC-MS. For liver microsomal stability studies, commercially available rat liver microsomes from Life Technologies, GIBCO were used. In brief, microsomes stored at −80 °C were slowly defrosted on ice. Test compounds (183 μL, 1 μM in 100 mM phosphate buffer pH 7.4 containing 0.1 % DMSO) were added to microsomes (5 μL) and NADPH (2 µL, 20 mM). Test solutions were heated in a circulating water bath at 37 °C for 5 min before additional cofactor NADPH (10 μL, 20 mM) was added. Aliquots (20 μL) were taken at time points (0, 5, 15, 30 and 60 min from the second addition of NADPH). Aliquots were added to MeCN/H2O (80 μL, 9:1) and centrifuged at 13,000 g for 3 min. Supernatants were analyzed for test compound degradation by LC-MSMS. Concentrations were plotted as a function of time on a semi-logarithmic graph. Rat plasma and microsomal activity was confirmed by rapid degradation of SLIGRL-NH2 (t1/2 < 5 min) in a parallel experiment.

C3aR [3] = biological target: T2, C3aR; assay: Histamine secretion in human LAD2 mast cells (agonist mode); type: cell-based; design: Concentration-dependent histamine secretion in human LAD2 mast cells; endogenous in cells; host or cells: LAD2 human mast cells; settings: compound alone, 30 min, n ≥ 3, ± SEM
Procedure: LAD2 human mast cells (kindly provided by Dr Dean Metcalfe, National Institute of Allergy and Infectious Diseases, National Institute of Health) were cultured in StemPro®-34 Serum Free Media (Invitrogen, Australia) supplemented with StemPro®-34 nutrient, 100 U/mL penicillin, 100 μg/mL streptomycin, 2 mM GlutaMAX, and 100 ng/mL human stem cell factor (SCF). Cells were hemi-depleted weekly and were not allowed to grow beyond a density of 0.5 × 10^6/mL. This cell line was authenticated by expression of tryptase and histamine granules. For the histamine assay, 1 × 10^4 cells per well were seeded in StemPro®-34 SFM in 96-well plates for 30 min before any treatments. For agonist studies, the cells were treated with compounds prepared in media for 30 min. For antagonist studies, the cells were pre-treated with compounds prepared in SFM for 30 min before addition of C3aR agonists for another 30 min. Cells were centrifuged (500 g, 5 min, 4 °C) and cell-free supernatants were collected for measuring histamine. Histamine content was measured using the histamine EIA kit according to the manufacturer’s instructions (Abnova, Taiwan). The readings were recorded on a FLUOstar Optima (BMG LabTechnologies, Offenburg, Germany).

C3aR [4] = biological target: T2, C3aR; assay: Intracellular Ca2+ release in human monocyte-derived macrophages (agonist mode); type: cell-based; design: Concentration-dependent Ca^2+ release in human monocyte-derived macrophages (HMDMs); endogenous in cells; host or cells: primary human monocyte-derived macrophages (HMDMs); settings: HMDMs, n ≥ 3, ± SEM
Procedure: HMDMs were isolated using Ficoll-paque density centrifugation (GE Healthcare Bio-Science, Uppsala, Sweden) from buffy coat (of anonymous human donors) provided by the Australian Red Cross Blood Service, Brisbane. CD14^+ monocytes were positively selected using CD14 MicroBeads (Miltenyi Biotech, Auburn, USA)[40], [41]. CD14^+ monocytes were differentiated to HMDMs using 100 ng/mL of recombinant human macrophage colony-stimulating factor (PeptroTech, Rocky Hill, USA) for 7 days in Iscove’s modified Dulbecco’s media supplemented with 10% fetal bovine serum, penicillin (100 U/mL), streptomycin (100 µg/mL) and L-glutamine (2 mM). HMDMs were supplemented after 5 days with fresh medium containing 10 ng/ml macrophage colony-stimulating factor and collected by gentle scraping on day 7.
HMDMs were seeded to a 96-well clear-bottom black-wall assay plate at a density of 5 × 10^4 cells per well and allowed to adhere overnight. Prior to assay, cells were incubated with dye-loading buffer (Hank’s balance salt solution (HBSS) buffer, 4 μM Fluo-3 AM, 25 μl Pluronic acid F-127 and 1% fetal bovine serum) for 1 h at 37 °C. Cells were then washed once with assay buffer (HBSS supplemented with 2.5 mM probenecid and 20 mM HEPES, pH 7.4). Intracellular calcium release was monitored using a fluorescence imaging plate reader (excitation 495 nm, emission 520 nm). The percentage responses were plotted against logarithmic concentrations of each test compound[42].

[5] = Rat liver microsomal stability; type: in vitro ADME; settings: rat, liver microsomes, pH 7.4; parallel control experiment, 37 °C; read-out: t1/2 in rat liver microsomes
Procedure: as §1

half-life at 0.915 µM [5] | half-life at 50 µM (Rat plasma stability; rat, plasma (neat), parallel control experiment, read-out: t1/2 in rat plasma) | Substance | C5aR binding by competition with [125I]-hC5a (C5aR) | Intracellular Ca2+ release [1] | Intracellular Ca2+ release (C3aR [2]) | Stability in rat plasma (Rat plasma stability; neat rat plasma, over 4 h (C3a up to 10 min)) | EC50 (C3aR [3]) | EC50 (C3aR [4])
– | – | hC3a: human complement protein C3a, 77 residue ~9 kDa helix bundle inflammatory protein | no binding | did not induce Ca^2+ release | did induce Ca^2+ release | degraded within minutes | 3 ± 1.5 nM | 8 ± 2 nM
< 5 min | < 5 min | H-SLIGRL-NH2 [SLIGRL-NH2, reference compound] | – | – | – | – | – | –
